# From patent publication US20090324601A1 (published 2009)
# “And” between values parts separate entries of the source, which are not always exact repeats. Equal entries are not always repeated.
# Assays:
# [1] = biological target: T1, PDGFR-alpha on human osteosarcoma MG-63 cells (human, UniProt P16234 24-1089); experiment: cell-based or functional assay
# [2] = biological target: T2, murine PDGFRa on NIH3T3 cells (murine, UniProt P26618 25-1089); experiment: FACS on NIH3T3 cells, goat anti-human IgG Cy5
# T2 construct: whole, on cells; also called mouse PDGFR-alpha
# Procedure: To set up animal xenograft studies, mouse cross-reactivity was determined using FACS analysis performed with NIH3T3 cells, a murine fibroblast line which expresses endogenous PDGFRa. […] Cells were rinsed and analyzed by FACS for the presence of Cy5.
# [3] = biological target: T3, PDGFR-alpha on MG-63 cells (human, UniProt P16234 24-1089); experiment: FACS titration on MG-63 cells expressing PDGFR-alpha, 4 °C, Cy5 secondary antibody, nonlinear fit of geometric mean fluorescence
# T3 construct: whole, on cells; receptor as expressed by MG-63 cells; also called platelet derived growth factor receptor-alpha; CD140a
# Procedure: (§1) Briefly, MG-63 cells expressing PDGFR-alpha were resuspended in FACS buffer (2% FBS, 0.05% NaN3) at a concentration of approximately 3 to 5 million cells/mL. Cells were kept on ice. Purified antibodies and CD140a control were serially diluted in filtered 1×PBS (2×) across 11 wells in 96-well plates. The twelfth well in each row contained buffer only. 1×PBS and cells were added to each mAb well such that the final volume was 30 μL/well and each well contained approximately 100,000 cells. The final molecular concentration ranges for the mAbs were as follows:
# (§2) Plates were placed on a plate shaker for 5 hours at 4° C., then spun and washed 3× with PBS. […] Plates were then placed on a shaker for 40 minutes at 4° C., then spun and washed 3× with PBS.
# (§3) The Geometric Mean Fluorescence (GMF) of 15,000 to 20,000 cell ‘events’ for each mAb concentration was determined using a FACSCalibur instrument. For each mAb, the GMF data was normalized for both replicate titrations relative to an identical mAb concentration point in each titration. Corresponding normalized titration points were averaged to give one normalized GMF point for each mAb concentration. […] A nonlinear plot of GMF as a function of molecular mAb concentration was fit using Scientist software using the equation:
# [4] = biological target: T3, PDGFR-alpha on MG-63 cells; experiment: cell-based or functional assay
# [5] = biological target: T3, PDGFR-alpha on MG-63 cells; experiment: cell-based or functional assay; remark: listed apart in the source
# [6] = biological target: T1, PDGFR-alpha on human osteosarcoma MG-63 …; experiment: FACS titration on MG-63 cells, 4 C, Cy5 goat anti-human detection
# Procedure: as §1, §2, §3
# T3 sequence (P16234 24-1089): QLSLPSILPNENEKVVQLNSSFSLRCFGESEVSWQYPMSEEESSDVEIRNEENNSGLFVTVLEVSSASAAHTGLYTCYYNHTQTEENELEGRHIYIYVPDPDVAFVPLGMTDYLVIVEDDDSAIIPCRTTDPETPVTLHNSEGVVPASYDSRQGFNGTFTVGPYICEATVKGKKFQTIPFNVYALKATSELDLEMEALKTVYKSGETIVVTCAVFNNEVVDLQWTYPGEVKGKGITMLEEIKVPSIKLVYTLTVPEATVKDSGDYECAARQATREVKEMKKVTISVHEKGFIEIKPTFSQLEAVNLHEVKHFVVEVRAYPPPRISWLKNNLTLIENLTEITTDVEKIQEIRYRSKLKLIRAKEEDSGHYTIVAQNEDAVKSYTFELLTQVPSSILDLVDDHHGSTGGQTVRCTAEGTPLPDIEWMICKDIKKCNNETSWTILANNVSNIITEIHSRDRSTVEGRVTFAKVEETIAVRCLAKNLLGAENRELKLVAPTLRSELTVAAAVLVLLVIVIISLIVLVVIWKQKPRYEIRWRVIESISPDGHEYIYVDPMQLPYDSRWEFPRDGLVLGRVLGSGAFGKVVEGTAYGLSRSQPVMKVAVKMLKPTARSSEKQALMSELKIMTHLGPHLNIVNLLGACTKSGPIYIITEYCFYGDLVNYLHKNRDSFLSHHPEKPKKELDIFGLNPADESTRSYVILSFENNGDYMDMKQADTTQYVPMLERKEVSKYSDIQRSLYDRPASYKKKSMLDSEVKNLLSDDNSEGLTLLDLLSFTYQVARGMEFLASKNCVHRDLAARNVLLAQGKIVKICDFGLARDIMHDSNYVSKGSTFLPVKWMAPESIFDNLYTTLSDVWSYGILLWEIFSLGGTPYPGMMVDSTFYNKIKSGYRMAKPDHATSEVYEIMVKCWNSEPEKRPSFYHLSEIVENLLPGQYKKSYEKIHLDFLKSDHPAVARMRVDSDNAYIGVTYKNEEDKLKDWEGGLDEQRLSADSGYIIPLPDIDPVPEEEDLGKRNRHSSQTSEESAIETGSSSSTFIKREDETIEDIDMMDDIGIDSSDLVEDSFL
# T1 sequence (P16234 24-1089): as above
# T2 sequence (P26618 25-1089): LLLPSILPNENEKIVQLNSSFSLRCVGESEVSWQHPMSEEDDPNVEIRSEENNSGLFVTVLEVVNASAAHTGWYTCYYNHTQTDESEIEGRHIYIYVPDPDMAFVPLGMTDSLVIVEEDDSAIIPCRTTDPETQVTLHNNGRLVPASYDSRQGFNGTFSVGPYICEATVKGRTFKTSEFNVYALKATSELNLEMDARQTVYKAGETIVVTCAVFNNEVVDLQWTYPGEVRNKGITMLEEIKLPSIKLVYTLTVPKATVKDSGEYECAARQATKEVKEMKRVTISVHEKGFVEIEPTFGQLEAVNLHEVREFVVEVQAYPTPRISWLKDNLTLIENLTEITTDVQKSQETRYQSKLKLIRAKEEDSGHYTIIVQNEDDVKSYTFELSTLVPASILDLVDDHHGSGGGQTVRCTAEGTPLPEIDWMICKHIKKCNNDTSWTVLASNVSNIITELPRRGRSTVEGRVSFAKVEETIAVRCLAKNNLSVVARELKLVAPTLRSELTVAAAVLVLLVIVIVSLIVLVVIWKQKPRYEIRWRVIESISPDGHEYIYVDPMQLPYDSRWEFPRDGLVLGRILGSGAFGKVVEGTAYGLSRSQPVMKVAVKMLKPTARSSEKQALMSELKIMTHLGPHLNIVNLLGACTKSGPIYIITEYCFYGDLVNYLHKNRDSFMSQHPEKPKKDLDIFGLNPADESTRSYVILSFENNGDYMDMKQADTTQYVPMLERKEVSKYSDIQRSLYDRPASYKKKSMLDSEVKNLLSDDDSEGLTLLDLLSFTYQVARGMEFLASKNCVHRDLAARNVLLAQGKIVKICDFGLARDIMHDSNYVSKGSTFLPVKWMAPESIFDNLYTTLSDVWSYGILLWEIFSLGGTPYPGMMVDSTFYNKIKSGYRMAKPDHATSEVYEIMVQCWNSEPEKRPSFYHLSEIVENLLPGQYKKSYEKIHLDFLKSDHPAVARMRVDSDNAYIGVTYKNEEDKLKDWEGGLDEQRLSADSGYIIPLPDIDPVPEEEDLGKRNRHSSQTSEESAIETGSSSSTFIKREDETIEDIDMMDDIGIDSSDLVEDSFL
Binder,Proliferation Assay: IC50 ng/ml (1-6-06) [1] [ng/mL],Proliferation Assay: IC50 ng/ml (1-23-06) [1] [ng/mL],Proliferation Assay: IC50 (1-6-06) [1] [nM],Proliferation Assay: IC50 (1-23-06) [1] [nM],pTyr Assay: % Inhibition @ 2 µg/ml [1] [%],binding result [2],Kd [3],Average pTyr Inhibition [4] [%],"PROLIFERATION ASSAY: MG-63 CELLS, IC50 [5]",Kd [6] [nM]
"5.16.1 (antibody, V domains shown) VH: QVQLVQSGAEVKKPGASVKVSCKASGYTFTSYYMYWVRQAPGQGLEWMGIINPSGGSTSYAQKFQGRVTMTRDTSTSTVYMELSSLRSEDTAVYYCARGSSPFFDYWGQGTLVTVSS VL: DIQMTQSPSSLSASVGDRVTITCRASQIISHFLNWYQQKPGKAPKLLVYVASSLQSGVPSRFSGSGSGTDFTLTISSLQPEDFATYYCQQSFSIPLTFGGGTKVEIK",386,423,2.57,2.81,99,no binding (tested: 10 ug/ml),–,–,–,–
"2.175.3 (antibody, V domains shown) VH: QVHLVESGGGLVKPGGSLRLSCAASGFTFSDYYMHWIRQAPGKGLEWVSYISRSGSLIYYVDSVKGRFTISRDNAKNSLNLQMNSLRAEDTAVYYCARGGPYSGSPFDYWGQGTLVTVSS VL: DIQMTQSPSSLSASVGDRVTITCRPSQRISRYLNWYQQKPGKAPKFLIYAASSLPSGVPSRFSGSGSGTDFTLTISTLQPEDFATYYCQQSYSTPPWTFGQGTKVEIK",–,–,–,–,–,–,0.328 nM,99,0.37 nM,–
"3.341.2 (antibody, V domains shown, Only variable regions) VH: EVQLVESGGGLVQPGGSLRLSCAASGFTFSSYSMNWVRQAPGKGLEWVSFISGSSSTMYYADSVKGRFTISRDNAKNSLYLQMNSLRDEDTAVYYCARLRYFDWSYAFDIWGQGTMVTVSS VL: DIQMTQSPSSVSTSVGDRVTITCRASQGIRSWLAWYQQRPGKAPKLLIYAASSLQNGVPSRFSGSGSGTDFTLTISSLQPEDFATYFCQQATSFPFTFGPGTKVDIN",404,471,2.7,3.1,100,no binding (tested: 10 ug/ml),–,–,–,–
"2.351.3 (antibody, V domains shown) VH: QVQLVQSGAEVKKPGASVKVSCKASGYTFIGYYLHWVRQAPGQGLEWMGSINPNSGGTNYAQKFQGRVTMIRDTSINTAYMELSRLRSDDTAVYYCARDKRITMVRGVHYLYYGWDVWGQGTTVTVSS VL: DIQMTQSPSSLSASVGDRVTITCRASQVISNYLAWYQQKPGKVPQLLIYAASTLQSGVPSRFSGSGSGTDFTLTISSLQPEDVATYYCQNYKSAPWTFGQGTKVEIK",1080,649,–,–,97,no binding (tested: 10 ug/ml),–,–,–,–
"2.737.1.4 (antibody, V domains shown) VH: QVQLVESGGGLVKPGGSLRLSCAASGFTFRDYYMSWIRQAPGKGLEWVAFISSSGSIIYYADSVKGRFTISRDNAKNSLFLQMNSLRAEDTAVYYCARDGHIAARGMDVWGQGTTVTVSS VL: DIQMTQSPSSLSASVGDRVTITCRASQSINKYINWYQQKPGKAPKLLIYAASSLQSGVPSRFNGSGSGTDFTFTINTLQPEDFATYYCQQTYSTPPITFGQGTRLEIK",551,558,3.7,3.73,99,no binding (tested: 10 ug/ml),–,–,–,–
"2.449.1.3 (antibody, V domains shown, also called 2.449.1.3 (control)) VH: QVQLVESGGGLVKPGGSLRLSCAASGFTFSDYYMNWIRQAPGKGLEWVSYISSSGSIIYYADSVKGRFTISRDNAKNSLYLQMNSLRAEDTAVYYCAREGRIAARGMDVWGQGTTVTVSS VL: DIQMTQSPSSLSASVGDRVSITCRPSQSFSRYINWYQQKPGKAPKLLIHAASSLVGGVPSRFSGSGSGTDFTLTISSLQPEDFATYYCQQTYSNPPITFGQGTRLEMK",–,–,–,–,–,–,0.052 nM and 0.053 nM,99,1.57 nM,–
"2.84.3 (antibody, V domains shown) VH: QLQLQESGPGLVKPSETLSLTCTVSGGFISSSSYYWGWIRQPPGKGLEWIGTIYYSGTTYYNSSLKSRVTISVDTSQNQFSLKLSSVTAADTAVYYCARHHWVFDYWGQGTLVTVSS VL: EVVLTQSPDFQSVTPKEKITITCRASQIIGTSLHWYQKKPDQSPKLLIKYASQSFSGVPSRFSGSGSGTEFTLTINSLEAEDTATYYCHQSTNLPWTFGQGTKVEIK [2.84.3, listing 1 of 2 here]",192,481,1.3,3.2,98,no binding (tested: 10 ug/ml),–,–,–,0.227
"2.998.2 (antibody, V domains shown) VH: QLQLQESGPGLVKPSETLSLTCTVSGDSISSFIYYWGWIRQPPGKGLEWIGTIYYSGSTYYNPSLKSRVTISVDTSKNQFSLKLRSVTAADTAVYYCARHHWVFDYWGQGTQVTVSS VL: DIVLTQFPDFQSVTPKEKVTITCRASQVIGSSLHWYQQKPDQSPKLLIKYASQSFSGVPSRFSGSGSGTDFTLTINSLEVEDAATYYCHQSTILPWTFGQGTKVEVK",–,–,–,–,–,–,0.057 nM,99,2.1 nM,–
"2.84.3 (antibody, V domains shown) VH: QLQLQESGPGLVKPSETLSLTCTVSGGFISSSSYYWGWIRQPPGKGLEWIGTIYYSGTTYYNSSLKSRVTISVDTSQNQFSLKLSSVTAADTAVYYCARHHWVFDYWGQGTLVTVSS VL: EVVLTQSPDFQSVTPKEKITITCRASQIIGTSLHWYQKKPDQSPKLLIKYASQSFSGVPSRFSGSGSGTEFTLTINSLEAEDTATYYCHQSTNLPWTFGQGTKVEIK [2.84.3, listing 2 of 2 here]",–,–,–,–,–,–,0.227 nM,98,481 ng/ml and 3.2 nM,–
"2.414.2 (antibody, V domains shown) VH: QLQLQESGPGLVKPSETLSLTCTVSGGSISSSNYYWGWIRQPPGKGLEWIGTIYYTGSTYYNPSLKSRVTISVDTSKNQFSLKLSSVTAADTAVYYCARHHWVFDYWGQGTLVTVSS VL: EIVLTQSPDFLSVTPKEKVTITCRASQIIGSSLHWYQQKPDQSPKLLIKYASQSFSGVPSRFSGSGSGTDFTLTLNSLEAEDAATYYCHQSTILPWTFGQGTKVEIK",658,349,4.4,2.3,99,no binding (tested: 10 ug/ml),–,–,–,–
"2.542.2 (antibody, V domains shown) VH: QLQLQESGPGLVKPSETLSLTCTVSGGSISSSTYYWGWIRQPPGKGLEWIGTIYYSGSTYYNPSLKSRVTISVDTSKNQFSLKLNSVTAADTAVYYCARHHWVFDYWGQGTLVTVSS VL: EIVLTQSPDFLSVTPKEKVTITCRASQIIGSSLHWYQQKPDQSPNLLIKYASQSVSGVPSRFSGSGSGTDFTLTLNSLEAEDAATYYCHQSTILPWTFGQGTKVEIK",1040,652,–,–,99,no binding (tested: 10 ug/ml),–,–,–,–
